In patent US20170320955A1 (IGM BIOSCIENCES A S, published 2017):

Columns and labels:
Assay in all cases: ELISA as in Example 2, receptor coated on the plate
[1] = biological target: T1, Soluble DcR1 protein (R&D Systems Catalog #630-TR-100/CF) (UniProt O14798 26-221, limits assumed)
T1 construct: Coated on the ELISA plate at 2 ug/mL; also called TRAILR3; decoy receptor DcR1
T1 sequence (looked up): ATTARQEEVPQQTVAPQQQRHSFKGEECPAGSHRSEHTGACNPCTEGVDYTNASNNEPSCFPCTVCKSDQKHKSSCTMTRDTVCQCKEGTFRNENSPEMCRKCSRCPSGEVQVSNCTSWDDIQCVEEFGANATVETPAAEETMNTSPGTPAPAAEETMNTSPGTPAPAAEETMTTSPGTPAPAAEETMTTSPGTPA
Protocol: (§1) DR4 or decoy receptors DcR1 and DcR2. Soluble DRS, DR4, DcR1, or DcR2 protein (R&D Systems Catalog #631-T2-100/CF, 347-DR-100/CF, 630-TR-100/CF, 633-TR-100 respectively) were coated on an ELISA plate at 2 μg/mL in 100 mM NaHCO₃ pH 9.5 overnight at 4° C. A solution of 2% BSA in PBS was used for the blocking and antibody incubation steps. The plate was blocked for 1 hour at room temperature, then incubated with mouse anti-human DRS mAb (Acris Antibodies Catalog #AM31206AF-N) for 1 hour at room temperature. anti-DRS mAb was 3-fold serially diluted to concentrations ranging from 1 to 200 ng/mL. After washing 3 times with PBS plus 0.05% Tween-20, the plate was incubated with rat anti-mouse kappa-HRP (Southern Biotech Catalog #1180-05) for 1 hour at room temperature, protected from light. After washing 3 times with PBS plus 0.05% Tween-20, the plate was incubated with TMB substrate (BD Biosciences Catalog #555214) for 20 minutes at room temperature. The reaction was stopped with 1M H₂SO₄ and absorbance at 450nm was determined using a microtiter plate reader.
(§2) Biotech Catalog #9180-05) or 1:6000 Mouse Anti-Human Kappa-HRP (Southern Biotech Catalog #9230-05) was used for detection.

[2] = biological target: T2, Soluble DR4 protein (R&D Systems Catalog #347-DR-100/CF) (human, UniProt O00220 24-239, limits assumed)
T2 construct: Coated on the ELISA plate at 2 ug/mL; also called TRAILR1; Apo2
T2 sequence (looked up): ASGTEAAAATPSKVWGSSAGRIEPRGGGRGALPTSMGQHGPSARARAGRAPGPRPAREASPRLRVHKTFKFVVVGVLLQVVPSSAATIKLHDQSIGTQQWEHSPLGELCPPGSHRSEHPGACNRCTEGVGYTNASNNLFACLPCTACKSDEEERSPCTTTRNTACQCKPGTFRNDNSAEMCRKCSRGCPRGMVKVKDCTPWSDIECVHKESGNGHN
Protocol: as §1, §2

[3] = biological target: T3, Soluble DcR2 protein (R&D Systems Catalog #633-TR-100) (UniProt Q9UBN6 56-211, limits assumed)
T3 construct: Coated on the ELISA plate at 2 ug/mL; also called TRAILR4; decoy receptor DcR2
T3 sequence (looked up): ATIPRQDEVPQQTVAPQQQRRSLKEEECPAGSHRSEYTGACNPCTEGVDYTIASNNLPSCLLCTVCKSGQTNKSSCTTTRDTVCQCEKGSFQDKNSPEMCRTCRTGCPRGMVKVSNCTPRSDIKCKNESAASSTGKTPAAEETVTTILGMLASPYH
Protocol: as §1, §2

Measured: binding result

B1: Anti-DR5 mAb #2, IgG version (antibody, V domains shown)
VH: QVQLQESGPGLVKPSQTLSLTCTVSGGSISSGDYFWSWIRQLPGKGLECIGHIHNSGTTYYNPSLKSRVTISVDTSKKQFSLRLSSVTAADTAVYYCARDRGGDYYYGMDVWGQGTTVTVSS
VL: EIVLTQSPGTLSLSPGERATLSCRASQGISRSYLAWYQQKPGQAPSLLIYGASSRATGIPDRFSGSGSGTDFTLTISRLEPEDFAVYYCQQFGSSPWTFGQGTKVEIK
notes: Human IgG; variable domains put into proprietary IgG vectors (Aragen Biosciences, Lake Pharma); also called DR5 MAb IgG #2; Anti-DRS mAb #2 IgG
no binding: all assays above

B2: Anti-DR5 mAb #2, pentameric IgM-J chain version (antibody, V domains shown)
VH: B1 VH
VL: B1 VL
notes: Pentameric IgM with J chain; variable domains put into proprietary IgM vectors; also called DR5 MAb IgM #2; IgM Anti-DR5 mAb #2
no binding: all assays above
